The values below come from patent publication US20060222644A1 (Biogen, published 2006).

The target of assay [1] is T1, lymphotoxin beta receptor (LT-β-R) (human, UniProt P36941 31-435).
T1 construct: whole, on cells; also called LT-β receptor
Briefly: FACS staining of HT-29 cells with purified antibody; reference huCBE11.

The target in assay [2] is T1, lymphotoxin beta receptor (LT-β-R). Briefly: FACS of Protein A-purified antibodies on HT29 cells. The method, then:
Co-transfections of 293-EBNA cells with chBHA10 and huBHA10 Versions 1-4 were scaled up and conditioned medium was harvested. Antibody was purified on Protein A-Sepharose and purified mAbs were assayed for activity. Binding to the lymphotoxin-beta receptor was determined by FACS analysis of protein A-purified antibodies on the cell-line HT29.
HT29 cells were harvested by treatment with PBS containing 5 mM EDTA for 30 minutes followed by vigorous agitation. Cells were distributed to round-bottom 96-well plates at 2.5×10⁵ cells/well. Supernatants from 293-E cells transfected with BHA10 variants were added to the wells at the indicated dilutions in a total volume of 100 μl and incubated at 4° C. for 1 hour. The cells were washed twice with FACS buffer (PBS containing 5% FBS) and incubated with a 1:100 dilution of PE-conjugated anti-human heavy and light chain antibody (Jackson ImmunoResearch Laboratories) for 1 hour. The cells were then washed 3 times with FACS buffer and resuspended in 100 μl of PBS containing 1.0% paraformaldehyde. Samples were then transferred to the FACS facility for analysis. Protein A-purified antibodies from 293-E cells transfected with BHA10 variants were assayed at the indicated concentrations as shown in FIG. 2. The Protein A-purified CBE11 and 5C8 (anti-CD40L antibody) research standards were used as positive and negative controls, respectively. Rank ordering of binding activity was chBHA10=Version 4 huBHA10=Version 2 huBHA10>Version 3 huBHA10.

T1 sequence (P36941 31-435): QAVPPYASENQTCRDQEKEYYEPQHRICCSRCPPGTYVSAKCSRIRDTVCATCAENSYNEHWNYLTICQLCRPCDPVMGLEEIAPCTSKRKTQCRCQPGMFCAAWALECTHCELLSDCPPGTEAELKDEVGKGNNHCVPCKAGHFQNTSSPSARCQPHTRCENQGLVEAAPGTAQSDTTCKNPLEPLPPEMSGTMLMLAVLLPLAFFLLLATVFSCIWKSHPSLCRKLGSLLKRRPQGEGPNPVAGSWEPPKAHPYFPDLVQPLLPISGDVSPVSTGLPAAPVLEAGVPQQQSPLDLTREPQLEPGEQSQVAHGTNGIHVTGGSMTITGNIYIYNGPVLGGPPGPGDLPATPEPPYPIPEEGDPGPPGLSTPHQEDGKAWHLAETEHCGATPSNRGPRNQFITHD

B1: chimeric BHA10 (chBHA10) (antibody, human IgG1, V domains shown)
VH: QVQLQQSGPELVKPGASVRISCKASGYTFTTYYLHWVKQRPGQGLEWIGWIYPGNVHAQYNEKFKGKATLTADKSSSTAYMQLSSLTSEDSAIYFCARSWEGFPYWGQGTTVTVSS
VL: DIVMTQSQKFMSTSVGDRVSVTCKASQNVGINVAWYQQKPGQSPKSLISSASYRYSGVPDRFTGSGSGTDFTLTITNVQSEDLAEYFCQQYDTYPFTFGSGTKLEIK
notes: expressed in 293-EBNA cells; also called chBHA 0
Regarding B1, the “apparent Kd, fold relative to huCBE11” value in assay [1] is ~2 fold.

B2: Version 4 huBHA10 (antibody, human IgG1, kappa, V domains shown)
VH: QVQLVQSGAEVKKPGSSVKVSCKASGYTFTTYYLHWVRQAPGQGLEWMGWIYPGNVHAQYNEKFKGRVTITADKSTSTAYMELSSLRSEDTAVYYCARSWEGFPYWGQGTTVTVSS
VL: DIQMTQSPSSLSASVGDRVTITCKASQNVGINVAWYQQKPGKAPKSLISSASYRYSGVPSRFSGSGSGTDFTLTISSLQPEDFATYFCQQYDTYPFTFGQGTKVEIKR
notes: Heavy chain #3 and Light chain #2; human IgG1/kappa; the 293-EBNA material from pKJS046 may still carry it; also called huBHA10 Version 4; humanized BHA10 antibody version 4
B2: the binding result in assay [2] is listed as “binds”.

B3: Version 3 huBHA10 (antibody, human IgG1, V domains shown)
VH: QVQLVQSGAEVKKPGSSVKVSCKASGYTFTTYYLHWVRQAPGQGLEWMGWIYPGNVHAQYNEKFKGRVTITADKSTSTAYMELSSLRSEDTAVYYCARSWEGFPYWGQGTTVTVSS
VL: DIQMTQSPSSLSASVGDRVTITCKASQNVGINVAWFQQKPGKAPKSLISSASYRYSGVPSRFSGSGSGTDFTLTISSLQPEDFATYYCQQYDTYPFTFGQGTKVEIK
notes: the 293-EBNA material may still carry it; also called huBHA10 Version 3
In the case of B3, in assay [2], the binding result is “binds”.

B4: Version 2 huBHA10 (antibody, human IgG1, V domains shown)
VH: QVQLVQSGAEVKKPGSSVKVSCKASGYTFTTYYLHWVRQAPGQGLEWIGWIYPGNVHAQYNEKFKGRATITADKSTSTAYMELSSLRSEDTAVYYCARSWEGFPYWGQGTTVTVSS
VL: DIQMTQSPSSLSASVGDRVTITCKASQNVGINVAWYQQKPGKAPKSLISSASYRYSGVPSRFSGSGSGTDFTLTISSLQPEDFATYFCQQYDTYPFTFGQGTKVEIKR
notes: also called huBHA10 Version 2
For B4, the binding result in assay [2] is “binds”.
